Reference: the supplement of paper PMC12338614

B1: library; numbered along this chain (parent)
chain: MEVVDPQQLGMFTEGELMSVGMDTFIHRIDSTEVIYQPRRKRAKLIGKYLMGDLLGEGSYGKVKEVLDSETLCRRAVKILKKKKLRRIPNGEANVKKEIQLLRRLRHKNVIQLVDVLYNEEKQKMYMVMEYCVCGMQEMLDSVPEKRFPVCQAHGYFCQLIDGLEYLHSQGIVHKDIKPGNLLLTTGGTLKISDLGVAEALHPFAADDTCRTSQGSPAFQPPEIANGLDTFSGFKVDIWSAGVTLYNITTGLYPFEGDNIYKLFENIGKGSYAIPGDCGPPLSDLLKGMLEYEPAKRFSIRQIRQHSWFRKKHPPAEAPVPIPPSPDTKDRWRSMTVVPYLEDLHGADEDEDLFDIEDDIIYTQDFTVPGQVPEEEASHNGQRRGLPKAVCMNGTEAAQLSTKSRAEGRAPNPARKACSASSKIRRLSACKQQ

Variants of: B1
Test: STK11 functional score (HeLa growth suppression), rescaled enrichment; synonymous median = 1, nonsense median = 0 (normalised score)
Conditions: with HeLa; variant type: missense
Summary of the method: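 In HeLa, Bxb1 integrated POPCode codon-randomised libraries of codon-optimised STK11 at an AAVS1 landing pad; three regions were each transfected three times. Integrants, marked as BFP-negative and mCherry-positive, were FACS-sorted 4–5 days after electroporation and expanded for about two weeks before tiled gDNA amplicons were sequenced on NextSeq (~2 million reads per tile). Each functional score is a post/pre-selection log ratio corrected to wild type, rescaled to the synonymous and nonsense medians, and merged across codons and replicate transfections, with error estimated by bootstrapping.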

STK11 functional score, by site and new letter:
Y272: P 1.38, R 0.701, N 1.71, H 1.08, F 1.27, C 1.13, M 1.63, W 1.01, V 0.735, I 1.08, T 1.44, E 1.28, G 1.2, S 0.837, A 1.33, L 0.641
G270: L 0.945, A 0.849, N 1.4, P 1.43, T 1.09, D 1.52, H 1.07, C 1.41, Q 1.16, I 0.821, V 1.26, S 1.47, R 1.43, M 0.994, E 1.42, F 1.14
I267: V 1.09, S 1.16, M 0.815, D 0.629, F 0.659, N 0.995, L 0.603, T 1.11, R 1.01, H 1.45, A 1, P 0.26, W 0.777, G 0.602
N266: D 1.13, I 1.38, T 0.876, A 1.45, M 0.331, P 1.09, W 0.574, L 0.675, R 1.3, G 0.477, S 0.965, H 1.29, E 0.101, V 0.844, C 0.945, K 0.318
A273: I 1.46, H 0.901, S 0.646, P 1.4, N 1.3, T 1.46, D 0.919, W 1.65, V 0.694, G 0.649, K 0.589, C 0.584, L 0.931, R 1.13, F 0.993, M 0.796
K269: P 1.26, R 1.22, H 1.49, Y 1.33, F 0.789, S 1.41, I 1.28, Q 1.5, L 1.45, G 1.46, C 1.09, V 1.22, T 1.47, N 1.23, A 0.886, W 0.728
P275: A 0.693, D 1.63
F264: L 1.1, G 1.01, W 0.216, T 0.96, V 0.678, E 1.57, I 0.658, R 0.806, P 1.4, Y 1.06, S 0.597
I274: H 0.363, S 0.98, G 1.05, V 0.7, N 1.27, D 0.889, F 1.13, A 0.907, Y 1.16, C 0.973, M 0.974, W 0.0744, R 0.816, L 1.02, Q 1.62
S271: Q 1.08, R 1.04, C 0.412, L 1.39, V 0.986, Y -0.251, F 1.03, T 1.17, A 1.11, G 0.976, P 0.317, W 0.443, D 1.64, I 1.15, M 1.5
G268: V 0.743, Y 1.32, H 1.15, D 1.53, A 0.916, T 1.52, L 1.56, I 1.65, C 1.25, Q 1.26, R 1.44, M 0.465, S 1.55, N 1.03, F 1.16, P 1.07
E265: W 1.57, R 1.41, I 1.42, S 1.49, V 1.41, C 1.67, L 1.18, M 1.25, F 1.08, G 0.962, D 1.31, Q 0.752, A 1.3, T 1.56
